Test [1] has as its target mouse melanocortin 1 receptor (mouse) (UniProt Q01727).
In test [2] the target is human melanocortin 5 receptor (human) (UniProt P33032).
Test [3] addresses mouse melanocortin 4 receptor (mouse) (UniProt P56450).
Test [4] addresses human melanocortin 4 receptor (human) (UniProt P32245).
Test [5] deals with human melanocortin 1 receptor (human) (UniProt Q01726).
In test [6] the target is human melanocortin 3 receptor (human) (UniProt P41968).
The target of test [7] is mouse melanocortin 5 receptor (mouse) (UniProt P41149).
Chain of mouse melanocortin 5 receptor (mouse) (P41149 whole entry): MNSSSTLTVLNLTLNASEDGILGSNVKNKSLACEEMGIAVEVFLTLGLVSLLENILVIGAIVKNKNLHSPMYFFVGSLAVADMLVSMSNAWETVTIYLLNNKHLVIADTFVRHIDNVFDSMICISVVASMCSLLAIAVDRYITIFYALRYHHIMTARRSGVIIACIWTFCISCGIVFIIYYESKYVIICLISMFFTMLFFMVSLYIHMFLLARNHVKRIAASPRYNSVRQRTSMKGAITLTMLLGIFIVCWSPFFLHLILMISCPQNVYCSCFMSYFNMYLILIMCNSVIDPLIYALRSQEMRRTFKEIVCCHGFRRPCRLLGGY
For test [8], the target named is mouse melanocortin 3 receptor (mouse) (UniProt P33033).
Chain of mouse melanocortin 3 receptor (mouse) (P33033 whole entry): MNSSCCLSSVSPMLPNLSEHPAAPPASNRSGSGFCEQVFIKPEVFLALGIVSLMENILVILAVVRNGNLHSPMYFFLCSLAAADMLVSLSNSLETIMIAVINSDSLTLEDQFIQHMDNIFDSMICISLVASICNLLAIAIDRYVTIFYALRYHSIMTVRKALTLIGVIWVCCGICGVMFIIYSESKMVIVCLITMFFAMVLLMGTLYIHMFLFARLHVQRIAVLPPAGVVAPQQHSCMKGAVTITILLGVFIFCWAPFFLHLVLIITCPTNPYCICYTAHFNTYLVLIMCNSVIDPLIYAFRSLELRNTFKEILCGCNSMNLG

Chain of mouse melanocortin 1 receptor (mouse) (Q01727 whole entry): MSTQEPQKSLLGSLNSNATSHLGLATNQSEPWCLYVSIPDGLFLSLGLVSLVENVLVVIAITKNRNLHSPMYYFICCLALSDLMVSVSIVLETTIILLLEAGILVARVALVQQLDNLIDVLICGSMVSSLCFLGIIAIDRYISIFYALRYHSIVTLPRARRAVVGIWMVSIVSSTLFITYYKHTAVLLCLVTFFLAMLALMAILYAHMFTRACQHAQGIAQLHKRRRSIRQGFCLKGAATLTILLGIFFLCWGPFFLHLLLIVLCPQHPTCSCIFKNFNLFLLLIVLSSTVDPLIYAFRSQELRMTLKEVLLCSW
Chain of mouse melanocortin 4 receptor (mouse) (P56450 whole entry): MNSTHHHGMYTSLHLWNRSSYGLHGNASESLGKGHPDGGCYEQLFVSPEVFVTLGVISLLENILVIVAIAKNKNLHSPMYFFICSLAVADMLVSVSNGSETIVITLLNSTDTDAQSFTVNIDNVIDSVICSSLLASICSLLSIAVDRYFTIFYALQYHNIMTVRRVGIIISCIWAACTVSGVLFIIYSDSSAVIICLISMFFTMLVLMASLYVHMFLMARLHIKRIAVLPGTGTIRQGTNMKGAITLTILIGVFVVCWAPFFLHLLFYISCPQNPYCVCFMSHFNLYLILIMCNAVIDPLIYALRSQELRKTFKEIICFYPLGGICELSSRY
Chain of human melanocortin 4 receptor (human) (P32245 whole entry): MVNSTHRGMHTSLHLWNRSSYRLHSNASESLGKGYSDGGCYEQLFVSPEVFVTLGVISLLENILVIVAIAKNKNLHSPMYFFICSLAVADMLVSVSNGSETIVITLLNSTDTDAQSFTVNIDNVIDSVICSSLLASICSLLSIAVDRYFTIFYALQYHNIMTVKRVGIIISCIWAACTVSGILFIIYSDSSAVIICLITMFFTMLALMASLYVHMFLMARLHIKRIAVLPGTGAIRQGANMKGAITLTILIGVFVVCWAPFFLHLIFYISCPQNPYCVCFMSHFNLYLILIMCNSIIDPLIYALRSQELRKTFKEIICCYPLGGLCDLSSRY
Chain of human melanocortin 1 receptor (human) (Q01726 whole entry): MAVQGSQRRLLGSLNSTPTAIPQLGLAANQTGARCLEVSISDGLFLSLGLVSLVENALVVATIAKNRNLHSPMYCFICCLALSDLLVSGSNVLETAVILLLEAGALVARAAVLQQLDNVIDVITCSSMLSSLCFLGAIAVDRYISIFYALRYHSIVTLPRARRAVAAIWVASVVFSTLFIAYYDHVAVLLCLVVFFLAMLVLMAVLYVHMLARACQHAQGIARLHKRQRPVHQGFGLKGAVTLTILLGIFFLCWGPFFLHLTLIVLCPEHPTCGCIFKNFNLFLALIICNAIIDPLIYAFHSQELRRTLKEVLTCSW
Chain of human melanocortin 3 receptor (human) (P41968 whole entry): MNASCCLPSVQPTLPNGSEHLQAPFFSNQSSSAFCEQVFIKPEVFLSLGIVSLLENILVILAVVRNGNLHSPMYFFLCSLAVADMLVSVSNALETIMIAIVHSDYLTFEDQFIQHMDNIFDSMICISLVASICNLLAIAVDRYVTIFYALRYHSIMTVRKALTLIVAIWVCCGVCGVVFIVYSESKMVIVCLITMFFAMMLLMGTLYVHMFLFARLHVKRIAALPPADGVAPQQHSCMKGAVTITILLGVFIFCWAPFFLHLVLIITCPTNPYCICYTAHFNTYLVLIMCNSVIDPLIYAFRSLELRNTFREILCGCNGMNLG
Chain of human melanocortin 5 receptor (human) (P33032 whole entry): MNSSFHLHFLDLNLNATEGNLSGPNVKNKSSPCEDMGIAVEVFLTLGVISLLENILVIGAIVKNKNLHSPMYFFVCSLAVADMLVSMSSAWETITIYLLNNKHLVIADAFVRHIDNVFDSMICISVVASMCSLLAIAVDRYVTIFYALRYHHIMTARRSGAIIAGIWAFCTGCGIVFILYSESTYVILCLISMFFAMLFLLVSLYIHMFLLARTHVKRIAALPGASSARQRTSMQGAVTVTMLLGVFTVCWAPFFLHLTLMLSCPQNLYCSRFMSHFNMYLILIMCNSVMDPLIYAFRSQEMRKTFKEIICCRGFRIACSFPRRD

As to NDP-MSH (peptide), the cAMP agonist EC50 (AlphaScreen cAMP assay, HEK293 cells expressing the receptor) in test [1] was 0.04 nM; in test [2], 0.4 nM; in test [3], 0.87 nM; in test [4] it was 0.13 nM; in test [5], 0.07 nM; in test [6], 0.3 nM. Besides, the cAMP agonist EC50 (AlphaScreen cAMP assay, HEK293 cells expressing the receptor) in test [7] was 0.41 nM; in test [8] it was 0.33 nM.

Source of the values: PMC6007841.
